As usually defined, the Kd is the constant that tells how readily two partners part at equilibrium. Low readings indicate higher affinity, high ones lower affinity.

The text below walks through data of publication PMC7211993.

In experiment [1] the target is MDA-modified bovine serum albumin (bovine) (UniProt P02769). Put plainly: MST; microscale thermophoresis with both binding partners in fluid phase.
Experiment [2] shares this target. As to the kind of experiment: ELISA; plasma added to coated MDA-BSA; bound CFH/FHL-1 detected with a monoclonal antibody that recognizes SCR5; read-out RLU/100 ms. (In general: In an ELISA, binding on a coated surface is turned into a signal by an enzyme label.)

Sequence of MDA-modified bovine serum albumin (bovine) (P02769 25-607): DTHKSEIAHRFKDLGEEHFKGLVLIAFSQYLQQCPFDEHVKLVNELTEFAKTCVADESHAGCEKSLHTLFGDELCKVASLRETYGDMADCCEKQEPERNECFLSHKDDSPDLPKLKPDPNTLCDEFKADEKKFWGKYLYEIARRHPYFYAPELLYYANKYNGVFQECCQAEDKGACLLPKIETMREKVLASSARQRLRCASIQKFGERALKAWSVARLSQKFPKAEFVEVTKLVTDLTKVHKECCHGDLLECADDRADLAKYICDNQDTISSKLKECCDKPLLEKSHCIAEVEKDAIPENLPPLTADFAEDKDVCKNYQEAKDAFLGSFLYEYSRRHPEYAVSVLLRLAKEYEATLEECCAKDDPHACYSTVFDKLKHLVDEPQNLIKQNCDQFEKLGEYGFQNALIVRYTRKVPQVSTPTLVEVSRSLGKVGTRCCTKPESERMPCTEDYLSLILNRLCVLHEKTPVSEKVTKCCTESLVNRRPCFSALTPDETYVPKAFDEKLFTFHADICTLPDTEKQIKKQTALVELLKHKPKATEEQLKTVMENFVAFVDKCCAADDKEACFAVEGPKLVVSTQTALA
Sequence of complement factor H and its splice variant factor H-like protein 1 in plasma (study cohorts, all rs1061170 genotypes) (P08603 19-1231, change not shown): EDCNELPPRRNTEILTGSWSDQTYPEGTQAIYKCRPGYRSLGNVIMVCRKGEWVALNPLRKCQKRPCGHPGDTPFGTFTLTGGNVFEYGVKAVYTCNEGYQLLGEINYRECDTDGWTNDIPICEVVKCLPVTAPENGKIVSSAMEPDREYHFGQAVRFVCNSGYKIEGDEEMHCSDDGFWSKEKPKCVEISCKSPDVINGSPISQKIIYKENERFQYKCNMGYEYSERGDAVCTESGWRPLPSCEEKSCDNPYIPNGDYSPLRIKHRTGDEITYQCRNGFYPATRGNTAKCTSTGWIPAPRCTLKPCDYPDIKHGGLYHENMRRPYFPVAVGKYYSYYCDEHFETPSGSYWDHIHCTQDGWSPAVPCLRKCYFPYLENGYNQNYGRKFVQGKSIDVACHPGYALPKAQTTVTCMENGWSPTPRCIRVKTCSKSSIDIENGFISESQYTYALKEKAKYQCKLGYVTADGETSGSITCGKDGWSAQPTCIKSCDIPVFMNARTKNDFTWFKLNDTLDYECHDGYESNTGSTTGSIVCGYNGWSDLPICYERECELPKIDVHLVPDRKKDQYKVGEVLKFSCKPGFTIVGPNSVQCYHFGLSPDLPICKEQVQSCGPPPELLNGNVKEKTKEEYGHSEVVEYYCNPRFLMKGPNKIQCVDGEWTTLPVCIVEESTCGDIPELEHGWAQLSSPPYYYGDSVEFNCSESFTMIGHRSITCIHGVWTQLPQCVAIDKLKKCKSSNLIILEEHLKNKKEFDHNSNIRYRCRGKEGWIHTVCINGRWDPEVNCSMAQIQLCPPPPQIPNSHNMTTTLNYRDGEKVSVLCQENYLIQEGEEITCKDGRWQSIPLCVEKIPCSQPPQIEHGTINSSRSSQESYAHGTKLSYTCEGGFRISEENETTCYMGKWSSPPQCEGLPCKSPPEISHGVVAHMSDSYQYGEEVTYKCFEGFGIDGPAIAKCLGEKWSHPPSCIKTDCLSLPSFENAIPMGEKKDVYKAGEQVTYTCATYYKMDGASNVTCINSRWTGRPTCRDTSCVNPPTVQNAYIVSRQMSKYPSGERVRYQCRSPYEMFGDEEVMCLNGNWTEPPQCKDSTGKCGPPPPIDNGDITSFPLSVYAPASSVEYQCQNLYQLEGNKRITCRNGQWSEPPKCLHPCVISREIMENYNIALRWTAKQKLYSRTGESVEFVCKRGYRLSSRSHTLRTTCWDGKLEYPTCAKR

As to “recombinant complement factor H-related protein 1 (from UniProt Q03591 19-330) (natural protein)”, the Kd in experiment [1] was determined as 860 nM.
For the substance “recombinant complement factor H-related protein 3 (from UniProt Q02985 19-330) (natural protein)”, in experiment [1], the Kd amounted to 3480 nM.
Consider “complement factor H and its splice variant factor H-like protein 1 in plasma (study cohorts, all rs1061170 genotypes) (from UniProt P08603 19-1231) (natural protein)”, for which, in experiment [2], the binding to MDA-BSA, median of healthy individuals (n = 934) is 24200 RLU/100 ms; the binding to MDA-BSA, median of patients with major depression (n = 896) was 24800 RLU/100 ms; the binding to MDA-BSA, median of the integrated cohort (n = 1,830) turned out to be 24600 RLU/100 ms.
